Patent US8962697

Assays:
LAR-7022 = tested on: T1, LAR-7022
T1 sequence: ADDIGTSRPQE

LAR-7048 = tested on: T2, LAR-7048
T2 sequence: PRRICV

LAR-7047 = tested on: T3, LAR-7047
T3 sequence: VFFRRQTA

How did the “hydrolysis of the peptide substrate, fragments by mass spectrometry” value (LAR-7022) turn out when Staphopain A and Staphopain B was run?
The value was “Degradation of LAR-7022 (b-ADDIG-TSRPQE): 1188.56 amu produced specific fragment pick: 717.37 corresponding to TSRPQE sequence”.

And the “degradation of the control peptide” value (LAR-7048)?
Its value is “No degradation was observed in these systems”.

What about the “degradation of the control peptide” value (LAR-7047) of the same substance?
Its value is “No degradation was observed in these systems”.
